Measurements published in patent US20150065444.

Target: Purified 6x His-tagged PCNA, P12004
Sequence (P12004 whole entry): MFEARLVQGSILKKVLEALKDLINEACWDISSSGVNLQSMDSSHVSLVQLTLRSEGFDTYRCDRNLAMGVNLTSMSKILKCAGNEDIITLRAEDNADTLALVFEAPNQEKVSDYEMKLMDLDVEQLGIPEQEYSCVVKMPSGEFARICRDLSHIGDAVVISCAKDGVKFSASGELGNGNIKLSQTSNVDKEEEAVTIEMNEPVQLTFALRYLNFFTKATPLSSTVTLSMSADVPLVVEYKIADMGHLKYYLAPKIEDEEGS

B1: Purified recombinant 6x His-tagged Arm1 (protein)
chain: MAVVPASLSGQDVGSFAYLTIKDRIPQILTKVIDTLHRHKSEFFEKHGEEGVEAEKKAISLLSKLRNELQTDKPFIPLVEKFVDTDIWNQYLEYQQSLLNESDGKSRWFYSPWLLVECYMYRRIHEAIIQSPPIDYFDVFKESKEQNFYGSQESIIALCTHLQQLIRTIEDLDENQLKDEFFKLLQISLWGNKCDLSLSGGESSSQNTNVLNSLEDLKPFILLNDMEHLWSLLSNCKKTREKASATRVYIVLDNSGFELVTDLILADFLLSSELATEVHFYGKTIPWFVSDTTIHDFNWLIEQVKHSNHKWMSKCGADWEEYIKMGKWVYHNHIFWTLPHEYCAMPQVAPDLYAELQKAHLILFKGDLNYRKLTGDRKWEFSVPFHQALNGFHPAPLCTIRTLKAEIQVGLQPGQGEQLLASEPSWWTTGKYGIFQYDGPL
  PCNA-dependent carboxyl methyltransferase activity (vapour diffusion assay): Arm possesses a PCNA-dependent carboxyl methyltransferase activity
